{"source": "patent US20250197448A1", "about": "“CYCLOPEPTIBODIES AND USES THEREOF” (University of Rochester, priority 2022, published 2025)", "key": {"PD-L1": {"biological_target": "T1, PD-L1 (Homo sapiens, UniProt Q9NZQ7)", "T1 construct": "poly-histidine (C); made in house", "T1 sequence (Q9NZQ7 19-290)": "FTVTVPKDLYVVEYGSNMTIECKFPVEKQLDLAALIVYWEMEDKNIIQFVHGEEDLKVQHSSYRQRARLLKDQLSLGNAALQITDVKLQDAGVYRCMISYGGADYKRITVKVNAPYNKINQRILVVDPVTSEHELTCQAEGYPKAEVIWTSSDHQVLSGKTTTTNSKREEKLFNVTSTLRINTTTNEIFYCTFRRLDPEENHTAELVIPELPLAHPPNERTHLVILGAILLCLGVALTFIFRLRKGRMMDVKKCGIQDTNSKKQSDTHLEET", "assay": "in vitro PD-L1 binding assay (plate-immobilized PD-L1)", "conditions": "Q6 vs. Q12 spacer", "experimental": "Streptavidin Binding Assay. For the streptavidin binding assays, streptavidin-coated plates (Sigma-Aldrich) were used. For the Keap1, Shh and PD-L1 binding assay, target protein was immobilized on microtiter plates by incubating 100 μL of a 4 μM protein solution in PBS buffer overnight at 4° C., followed by decanting the protein solution and blocking with 0.5% bovine serum albumin in PBS for 2 h at room temperature. After washing (3×150 μL of PBS with 0.05% Tween-20), each well was incubated with 100 μL of purified FLAG-tagged cyclopeptibody at varying concentrations for 1 hour at room temperature. After washing three times with wash buffer, each well was incubated with 100 μL of 1:2500 dilution of HRP-conjugate mouse anti-FLAG polyclonal antibody (Sigma-Aldrich) for 1 hour at room temperature. After washing three times with wash buffer, 100 μL of 2.2 mM o-phenylenediamine dihydrochloride, 4.2 mM urea hydrogen peroxide, 100 mM dibasic sodium phosphate, and 50 mM sodium citrate, pH 5.0, were added to each well, followed by measurement of the absorbance at 450 nm after 10-20 min using a Tecan Infinite 1000 plate reader. Equilibrium dissociation constants (Kp) were determined by fitting the dose-response curves to a 1:1 binding isotherm equation via nonlinear regression. using SigmaPlot. Mean values and standard deviations were calculated from experiments performed in triplicate. […]"}, "[1]": {"biological_target": "T2, PD-L1 receptor on MDA-MB-231 cells (Homo sapiens, UniProt Q9NZQ7)", "T2 construct": "known to express high levels of PD-L1 on their surface; endogenous in cells; host or cells: MDA-MB-231", "T2 sequence (Q9NZQ7 19-290)": "as above", "assay": "flow cytometry of MDA-MB-231 cells, PD-L1 labeling with FITC anti-human IgG Fc", "type": "cell-based", "experimental": "The cells were then incubated with fluorescein-conjugated anti-human IgG Fc antibody and analyzed by flow cytometry. The same experiment was carried out in parallel using commercially available anti-PD-L1 antibody as positive control and various negative controls.\nFlow Cytometry Analysis. […] When confluent, media was aspirated, cells were washed once with 1×DPBS (no calcium, no magnesium) (Gibco). Adherent cells were detached from the petri dish with 1 mL of accutase (Gibco) pre-warmed to 37° C., followed by incubated for 5 min at 37° C. Cells were spun down using centrifugation. Supernatant was removed and cells were washed three times with staining buffer (1×PBS with 0.5% BSA). Cells were resuspended in Eppendorf tubes in 100 μL PBS at a concentration of 107cells per mL. […] Eppendorf tubes were then placed on the platform shaker for gently shaking for 1 hour at room temperature. After 1 hour, cells were spun down using centrifugation, then supernatant was removed. […] Cells were washed as described above, then resuspended in 400 μL staining buffer. […] The cells of interest were gated using Forward and Side scatter (FSC/SSC). 10,000 singlet events were collected for each specimen."}, "[2]": {"biological_target": "T3, PD-L1 expressed on the surface of MDA-MB-231 cells (Homo sapiens, UniProt Q9NZQ7)", "T3 construct": "known to express high levels of PD-L1 on their surface; endogenous in cells; host or cells: MDA-MB-231", "T3 sequence (Q9NZQ7 19-290)": "as above", "assay": "confocal microscopy imaging of MDA-MB-231 cells", "type": "cell-based", "conditions": "anti-Fc-FITC staining", "experimental": "Cyclopeptibodies can be applied for detection and imaging of a target protein in cells and other biological systems. To illustrate this aspect of the invention, breast cancer cells MDA-MB-231 cells were treated with PD-L1 targeting cRK10 (pCaaF)-Tras-Fc. MDA-MB-231 cells are known to express high levels of PD-L1 on the cell membrane. After treatment with cRK10 (pCaaF)-Tras-Fc, the cyclopeptibody bound to the surface PD-L1 was labeled with fluorescein-conjugated anti-human Fc antibody (‘anti-Fc-FITC’) and cells were imaged using confocal microscopy."}}, "note": "Starred links: 1 amine or outer side, 2 acyl side, 3 side chain; linkers in the order of their positions; H or OH if unused. Positions of bridges follow the written chain, without caps; N, C: chain ends. Non-standard residues stand in square brackets, D forms with d. No end group written: not given here. pCaaF = p-(2-chloroacetamido)-phenylalanine, O=C(CCl)Nc1ccc(C[C@H](N[*:1])C(=O)[*:2])cc1", "data": [{"substance": "FLAG-(GS)2-TYLCGAISLAZKAQIKESL-(Q)6-(Fc)^1-H6 (DYKDDDDKGSGSTYLCGAISLA[pCaaF]KAQIKESLQQQQQQ-{Fc-H6}; thioether 16-23) [cRK10-Tras-Fc]", "values": [{"measurement": "higher PD-L1 binding affinity compared to FLAG-cRK10-Q12-Tras-Fc-His", "setting": "PD-L1", "value": "six-fold higher"}, {"measurement": "median fluorescence intensity (MFI) relative to positive control", "setting": "[1]; MDA-MB-231 cells, 0.09 mg/mL", "value": "comparable median fluorescence intensity (MFI) to that of the positive control anti-PD-L1 antibody"}, {"measurement": "staining / labeling of PD-L1 receptors on MDA-MB-231 cells (in words)", "setting": "[1]; concentration not given at the place", "value": "selective labeling of PD-L1 receptors"}, {"measurement": "recognition of surface PD-L1 by fluorescent imaging", "setting": "[2]", "value": "able to efficiently recognize PD-L1"}]}]}
